From patent US20100168443A1, “Ethoid-Containing Compounds, Methods for Preparing Ethoid-Containing Compounds, and Methods of Use” (UNIVERSITY OF VIRGINIA PATENT FOUNDATION, priority 2006, published 2010)
Each block holds one molecule with its values, some of them ahead of it. Where a SMILES comes first, the peptide text is derived from it. Where no end group is shown, it is not given here. [ ]: non-standard residue; d: D form. NMeF = CN[C@@H](Cc1ccccc1)C(=O)O; Nle = CCCC[C@H](N)C(=O)O

Assays:
DPP-4 peptidase = biological target: T1, DPP-4 peptidase (Homo sapiens, UniProt P27487); test: DPP4 enzyme stability assay; type: in vitro ADME; conditions: 1 mU DPP-4, tris buffer pH 7.5, 37° C, up to 8 hours incubation
T1 construct: purchased Sigma-Aldrich
T1 sequence (P27487 whole entry): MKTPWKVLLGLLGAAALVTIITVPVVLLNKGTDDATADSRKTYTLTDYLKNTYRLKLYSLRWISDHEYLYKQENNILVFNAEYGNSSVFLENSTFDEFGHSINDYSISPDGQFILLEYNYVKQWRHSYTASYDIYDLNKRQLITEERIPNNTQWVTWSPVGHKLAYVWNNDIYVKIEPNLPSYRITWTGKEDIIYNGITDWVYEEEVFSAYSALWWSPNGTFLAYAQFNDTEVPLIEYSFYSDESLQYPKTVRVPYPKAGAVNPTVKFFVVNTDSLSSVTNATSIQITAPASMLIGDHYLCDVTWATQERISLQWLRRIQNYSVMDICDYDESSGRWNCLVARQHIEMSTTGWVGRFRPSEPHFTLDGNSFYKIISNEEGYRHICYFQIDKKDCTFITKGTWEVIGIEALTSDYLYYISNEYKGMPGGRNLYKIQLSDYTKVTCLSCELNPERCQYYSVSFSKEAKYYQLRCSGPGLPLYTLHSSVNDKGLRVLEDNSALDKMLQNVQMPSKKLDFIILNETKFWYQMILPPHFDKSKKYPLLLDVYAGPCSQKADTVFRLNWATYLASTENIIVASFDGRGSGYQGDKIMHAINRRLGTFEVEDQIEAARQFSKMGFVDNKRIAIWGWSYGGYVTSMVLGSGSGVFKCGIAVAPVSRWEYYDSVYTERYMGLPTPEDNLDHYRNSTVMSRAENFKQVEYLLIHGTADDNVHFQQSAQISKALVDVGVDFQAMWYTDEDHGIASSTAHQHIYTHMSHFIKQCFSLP

[1] = biological target: T2, Tachykinin NK2 HUMAN receptor (Homo sapiens, UniProt P21452); conditions: radioligand; Human recombinant (CHO cells); cited from earlier work
T2 construct: host or cells: CHO
T2 sequence (P21452 1-398): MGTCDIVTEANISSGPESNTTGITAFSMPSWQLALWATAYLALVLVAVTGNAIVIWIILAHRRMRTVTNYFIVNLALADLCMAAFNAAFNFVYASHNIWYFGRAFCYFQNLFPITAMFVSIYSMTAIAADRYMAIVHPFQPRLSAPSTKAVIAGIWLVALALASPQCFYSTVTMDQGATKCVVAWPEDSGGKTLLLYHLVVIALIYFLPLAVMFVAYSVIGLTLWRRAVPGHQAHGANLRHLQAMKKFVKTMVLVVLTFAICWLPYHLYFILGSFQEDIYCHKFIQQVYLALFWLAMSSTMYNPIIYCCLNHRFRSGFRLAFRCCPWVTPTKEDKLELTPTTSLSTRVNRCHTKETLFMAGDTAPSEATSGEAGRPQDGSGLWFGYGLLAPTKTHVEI

[2] = biological target: human GnRH recombinant receptor (AequoScreen cell line, FAST-0160A) (human) (UniProt P30968); test: cell-based or functional assay
Sequence of human GnRH recombinant receptor (AequoScreen cell line, FAST-0160A) (human) (P30968 whole entry): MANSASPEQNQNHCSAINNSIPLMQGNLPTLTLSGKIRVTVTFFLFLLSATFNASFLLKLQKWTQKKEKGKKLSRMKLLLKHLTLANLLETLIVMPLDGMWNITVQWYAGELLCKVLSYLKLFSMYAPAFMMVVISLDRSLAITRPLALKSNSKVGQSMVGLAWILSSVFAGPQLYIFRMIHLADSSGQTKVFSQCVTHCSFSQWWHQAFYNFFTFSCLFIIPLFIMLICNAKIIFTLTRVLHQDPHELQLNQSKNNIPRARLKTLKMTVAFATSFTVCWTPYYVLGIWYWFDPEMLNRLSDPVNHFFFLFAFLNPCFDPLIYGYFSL

[3] = biological target: T3, Tachykinin NK3 human receptor (human recombinant, CHO cells) (human, UniProt P29371 1-465); test: radioligand binding, human recombinant NK3 in CHO cells (MDS Pharma assay #255710; printed as assay parameter)
T3 construct: whole, on cells
T3 sequence (looked up): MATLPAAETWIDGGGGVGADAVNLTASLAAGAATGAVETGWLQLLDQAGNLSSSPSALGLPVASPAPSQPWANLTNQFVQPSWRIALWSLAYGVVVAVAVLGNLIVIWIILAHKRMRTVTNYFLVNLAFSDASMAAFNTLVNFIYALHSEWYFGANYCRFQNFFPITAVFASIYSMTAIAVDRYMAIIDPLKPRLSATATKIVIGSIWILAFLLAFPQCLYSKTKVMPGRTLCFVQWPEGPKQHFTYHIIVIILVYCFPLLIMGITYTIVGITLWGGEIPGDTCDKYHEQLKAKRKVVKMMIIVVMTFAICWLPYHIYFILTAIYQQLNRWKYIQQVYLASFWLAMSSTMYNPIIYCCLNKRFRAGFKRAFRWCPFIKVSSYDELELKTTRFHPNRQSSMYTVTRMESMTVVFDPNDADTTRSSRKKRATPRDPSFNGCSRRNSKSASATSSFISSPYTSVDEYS

Molecule: CC(=O)NC1(c2ccccc2)CCN(CC[C@H](CN(C)C(=O)c2ccccc2)c2ccc(Cl)c(Cl)c2)CC1 [[3H] SR-48968]
- Kd [1]: 0.25 nM

Molecule: DMHDFF[NMeF]GLM-NH2 (ends and bridges not checked; also: 125I label, position not given here) [[125I] MePhe7-Neurokinin B]
- Kd [3]: 0.28 nM

Second part, the molecule after the results:

- DPP-4 peptidase resistance (degradation by HPLC-MS) (DPP-4 peptidase): substantially cleaved
Molecule: CCCC[C@H](NC(=O)[C@@H](NC(=O)[C@H](CC(=O)O)NC(=O)[C@H](CCC(N)=O)NC(=O)[C@H](CC(C)C)NC(=O)[C@H](CC(C)C)NC(=O)[C@H](CCCCN)NC(=O)[C@H](CCCNC(=N)N)NC(=O)[C@H](C)NC(=O)[C@H](CO)NC(=O)[C@H](CC(C)C)NC(=O)[C@H](CCC(N)=O)NC(=O)CNC(=O)[C@H](CC(C)C)NC(=O)[C@@H](NC(=O)[C@H](CCCCN)NC(=O)[C@H](CCCNC(=N)N)NC(=O)[C@H](Cc1ccc(O)cc1)NC(=O)[C@H](C)NC(=O)[C@H](C)NC(=O)[C@@H](NC(=O)[C@H](Cc1ccccc1)NC(=O)[C@@H](NC(=O)[C@H](C)NC(=O)[C@H](CC(=O)O)NC(=O)[C@H](C)NC(=O)[C@@H](N)Cc1ccc(O)cc1)[C@@H](C)CC)[C@@H](C)O)C(C)C)[C@@H](C)CC)C(=O)N[C@@H](CO)C(=O)N[C@@H](CCCNC(=N)N)C(N)=O [peptide control] (H-YADAIFTAAYRKVLGQLSARKLLQDI[Nle]SR-NH2)

- EC50, aequorin luminescence agonist assay (AequoScreen cells) [2]: 0.14 nM
- EC50, historical value of the same assay [2]: 0.38 nM
Molecule: [D-Trp6] LHRH (Bachem, H4075) (peptide)
